From publication PMC3579193, “Elucidation of relaxin-3 binding interactions in the extracellular loops of RXFP3” (Frontiers in Endocrinology, 2013)

B1: mono-Eu-labeled relaxin-3 agonist H3 relaxin B-chain, INSL5 A chain (H3/I5) [modified: mono-Eu label on the peptide; chain and site not stated] [not stated | human] / HA-tagged human RXFP3 (HA-RXFP3) [human] (parent complex)
chain 1: RAAPYGVRLCGREFIRAVIFTCGGSRW
chain 2: QDLQTLCCTDGCSMTDLSALC
chain 3: QMADAATIATMNKAAGGDKLAELFSLVPDLLEAANTSGNASLQLPDLWWELGLELPDGAPPGHPPGSGGAESADTEARVRILISVVYWVVCALGLAGNLLVLYLMKSMQGWRKSSINLFVTNLALTDFQFVLTLPFWAVENALDFKWPFGKAMCKIVSMVTSMNMYASVFFLTAMSVTRYHSVASALKSHRTRGHGRGDCCGRSLGDSCCFSAKALCVWIWALAALASLPSAIFSTTVKVMGEELCLVRFPDKLLGRDRQFWLGLYHSQKVLLGFVLPLGIIILCYLLLVRFIADRRAAGTKGGAAVAGGRPTGASARRLSKVTKSVTIVVLSFFLCWLPNQALTTWSILIKFNAVPFSQEYFLCQVYAFPVSVCLAHSNSCLNPVLYCLVRREFRKALKSLLWRIASPSITSMRPFTATTKPEHEDQGLQAPAPPHAAAEPDLLYYPPGVVVYSGGRYDLLPSSSAY

Variants of: B1
Assay: Eu-H3/I5 binding on cells, normalized to cell surface expression; read off a plot
chain 3 E54A, chain 3 D57A was tested, and the percent of parent was ~130 % of RXFP3 binding. For chain 3 E140A, chain 3 D144A, the percent of parent was ~6 % of RXFP3 binding. For chain 3 D252A, the percent of parent was ~96 % of RXFP3 binding. With chain 3 E361A the percent of parent was ~77 % of RXFP3 binding. With chain 3 E140A the percent of parent was ~5.5 % of RXFP3 binding. For chain 3 E71A, the percent of parent was ~110 % of RXFP3 binding. In the case of chain 3 D258A, the percent of parent is reported as ~79 % of RXFP3 binding. chain 3 D144A was tested, and the percent of parent was ~9.5 % of RXFP3 binding. chain 3 D74A was tested, and the percent of parent was ~81 % of RXFP3 binding. In the case of chain 3 D46A, chain 3 E50A, the percent of parent is reported as ~99 % of RXFP3 binding. In the case of chain 3 E243A, the percent of parent is reported as ~15 % of RXFP3 binding.
